Experimental data as given in paper PMC5385344, “Large Diversity of Functional Nanobodies from a Camelid Immune Library Revealed by an Alternative Analysis of Next-Generation Sequencing Data” (Frontiers in Immunology, 2017).

B1: 2A01 (VHH)
VHH: EVQLVESGGGLVQAGGSLRLSCAASSRTFSTYPMAWFRQAPGKEREFVATISRGGITSYYADSVKGRFTISRDNAKNTVYLQMNSLKPEDTAVYYCAQYKASATAYTRGRPDEIVHWGQGTQVTVSS
B2: 2A02 (VHH)
VHH: EVQLVESGGGTVKAGGSLRLSCAAPRRYHMGWFRQAPGKEREFVTAISSSGGSTSYADSVKGRFTISRDSAKSTVYLQMNSLKPEDTAVYFCAARSGLWMATSTQGHYDYWGQGTQVTVSS
B3: 2B10 (VHH)
VHH: EVQLVESGGGLVQAGGSLRLSCATSGISFRLSNMGWYRQAPGKSREFVAEITSGGNWNYADSVKGRFTISRDNAKSTVYLQMNSLKPEDTGVYYCNRLGTPLWGQGTQVTVSS
B4: 2C01 (VHH)
VHH: EVQLVESGGGLVQAGGSLRLSCAPSERTFRSDVMGWFRQAPGRGREFVAAIAENGDILTRFEGSAKGRFTISRDNANDTVYLQMSSLKPEDTAIYYCAARWGTITTVSHQYHFWGQGTQVTVSS
B5: 2C11 (VHH)
VHH: EVQLVESGGGLVQPGGSLRLSCAASGFTFNYYWMYWVRQRPGKGLEWVSAINTGGGTTDYADSVKGRFTISRDNAKSTLYLQMDSLKSEDTAVYYCAKDRRRLIRSEYDYLGQGTQVTVSS
B6: 2D04 (VHH)
VHH: EVQLVESGGGLVQAGGSLRLSCAASGRIFSVYRVGWFRQAPGKEREIVASINNRNGASTFYADSVKGRFTISRDSAKNTVYLQMRSLRPEDTAVYYCAARDQGTTEYHYWGQGTLVTVSS
B7: 2F08 (VHH)
VHH: EVQLVESGGGLVQAGGSLRLSCAASGRYPMGWFCQAPGGEREFVAAISRSGASTYYADSVKGRFTIARDSAKNTVYLEMNSLKPEDTAVYYCAAKENYYGDYGLAQNYDYWGQGTQVTVSS
B8: 2F12 (VHH)
VHH: EVQLVESGGGLVQAGGSLRLSCAASGSSTYEMGWFRQAPGKEREFVAGINWNGGRTYYADSVKGRFTISRDNAKMTVYLQMNSLKPEDTAAYYCSAAYGLRDAFRMYRSEYPYWGQGTQVTVSS
B9: 5B04 (VHH)
VHH: EVQLVKSGGGLVQVGGSLRLSCAASGRTFSSYAMGWFRQAPGKERELVAAINWNGGRTYYADFVKGRFTISRDNAKNTVYLQMNSLKPEDTAVYYCAAGHLTSTGVLHPADYYNWDEYDYWGQGTQVTVSS
B10: 5B10 (VHH)
VHH: EVQLVESGGGLVQAGGSLRLSCATSGRYVMGWFRQAPGQEREFVTSISRSGGSTTYADSVKGRFTISRDSAENTVYLQMNSLKPEDTAVYYCAAWSYYGVAYTSTTSPDYWGQGTLVTVSS
B11: 5F06 (VHH)
VHH: EVQLVESGGGLVQAGGSLGLSCAASGRVAMGWFRRPPGQERDFVAAISASGATTYYADSVKGRFTISRDSAKTTVYLQMNSLKPEDTAVYYCAARLSWSSDYRSGGSYEHWGQGTQVTVSS
B12: 8B01 (VHH)
VHH: EVQLVESRGGTVQAGGSLRLSCAASGRTFSNYAAGWFRQAPGKEREFVAGISAKGGVTYYVDFVKGRFTISRDNAKNTVYLQMNSLKPEDTAVYYCAADGSYGTILATIAENSRISLLKDWGQGTLVTVSS
B13: 8C03 (VHH)
VHH: EVQLVESGGGFVQAGGSLRLSCAASVRIAMGWFRQAPGKEREFVARISASGGSTEYADSVKGRFTISRDSSKSTAYLQMNSLKPEDTAVYYCAARLWNQREYPYWGQGTQVTVSS
B14: 8D02 (VHH)
VHH: EVQLVESGGGLVQTGGSLRLSCAASGLTFSDYAMGWFRQAAGKEREFVGVISWGGRHTYYGDFAKGRFTISRENSKNTVYLQMNSLKPEDTAVYTCARKRGMADIAYTHATSYDYWGQGTQVTVSS
B15: 8E08 (VHH)
VHH: EVQLVESGGGLVQPGGSLRLSCAASGFTLDNHAIGWFRRAPGKERERIGCISSSSGTTAYADSVEGRFTISRDNAKNTVYLQMNSLKPEDTAVYYCAARFQGGFLGCTFAPQTFGYWGQGTQVTVSS
B16: 8G04 (VHH)
VHH: EVQLVESGGGLVQAGGSLRLSCAASGRTFSVYPMGWFRQAPGKEREFVATISRRGAISYYQDSVKGRFTISRDSANDTVYLQMNSLRPEDTAVYYCAQYKASSSSYTRGRPDEIVYWGQGTQVTVSS
B17: 11A09 (VHH)
VHH: EVQLVESGGGLVQPGGSLRLSCAASGFTFSSYWMYWVRQAPGKGLEWVSAVNTGGGTTDYADSVKGRFTISRDNAKDTLYLQMNSLKYEDTAVYYCARDQRRYIRTTYDYHGQGTLVTVSS
B18: 11B09 (VHH)
VHH: EVQLVESGGGLVQAGGSLRLSCAASGRTFSNYAMGWFRQAPGKERDFVAAIDWSGDSISYENTVKGRFTISRDNAKNTMYLQMNSLKPEDTAVYFCATRSVGGISTLRRRYDYWGQGTLVTVSS
B19: 11D08 (VHH)
VHH: EVQLVESGGGLVQPGGSLRLSCAASGFTFSSYWMYWVRQAPGKGLEWVSAISPASGSVDYIDSVKGRFTISRDNAQNTLYLRMNSLKSEDTAIYYCAKDSRRLIRSNYETFGLGTQVTVSS
B20: KY704051 (VHH)
VHH: EVQLVESGGGLVQPGGSLRLSCAASGFAFSYYYMYWVRQAPGKGLEWVSRISPGGGTTYYADSVKGRFTISRDNAKNTLYLQMNSLNSEDTAVYYCAKDNRRLIDSGAYDYRGQGTLVTVSS
B21: KY704063 (VHH)
VHH: EVQLVESGGGLVQPGGSLTLSCVAYGITVPDYPIGWFRQSPGKEREGVSCIRRSGGRIVYSDSAKGRFNTSRDNAENTVYLQMNSLAPEDTAVYYCATKCMVEFGDTTYSDYAGLNYWGKGTLVTVSS
B22: KY704065 (VHH)
VHH: EVQLVESGGGLVQAGGSLRLSCAVSNTVFRLRTMDWYRQAPEKRREWVATITSDGSTDYVGAVKGRFTISRDNAKSTMYLQMNNVKPEDTAVYYCYTANFWGQGTLVTVSS

Target: full-length human RON expressed on HEK293T cells (HEK293T-hRON) (Homo sapiens, UniProt Q04912)
Sequence (Q04912 25-1400): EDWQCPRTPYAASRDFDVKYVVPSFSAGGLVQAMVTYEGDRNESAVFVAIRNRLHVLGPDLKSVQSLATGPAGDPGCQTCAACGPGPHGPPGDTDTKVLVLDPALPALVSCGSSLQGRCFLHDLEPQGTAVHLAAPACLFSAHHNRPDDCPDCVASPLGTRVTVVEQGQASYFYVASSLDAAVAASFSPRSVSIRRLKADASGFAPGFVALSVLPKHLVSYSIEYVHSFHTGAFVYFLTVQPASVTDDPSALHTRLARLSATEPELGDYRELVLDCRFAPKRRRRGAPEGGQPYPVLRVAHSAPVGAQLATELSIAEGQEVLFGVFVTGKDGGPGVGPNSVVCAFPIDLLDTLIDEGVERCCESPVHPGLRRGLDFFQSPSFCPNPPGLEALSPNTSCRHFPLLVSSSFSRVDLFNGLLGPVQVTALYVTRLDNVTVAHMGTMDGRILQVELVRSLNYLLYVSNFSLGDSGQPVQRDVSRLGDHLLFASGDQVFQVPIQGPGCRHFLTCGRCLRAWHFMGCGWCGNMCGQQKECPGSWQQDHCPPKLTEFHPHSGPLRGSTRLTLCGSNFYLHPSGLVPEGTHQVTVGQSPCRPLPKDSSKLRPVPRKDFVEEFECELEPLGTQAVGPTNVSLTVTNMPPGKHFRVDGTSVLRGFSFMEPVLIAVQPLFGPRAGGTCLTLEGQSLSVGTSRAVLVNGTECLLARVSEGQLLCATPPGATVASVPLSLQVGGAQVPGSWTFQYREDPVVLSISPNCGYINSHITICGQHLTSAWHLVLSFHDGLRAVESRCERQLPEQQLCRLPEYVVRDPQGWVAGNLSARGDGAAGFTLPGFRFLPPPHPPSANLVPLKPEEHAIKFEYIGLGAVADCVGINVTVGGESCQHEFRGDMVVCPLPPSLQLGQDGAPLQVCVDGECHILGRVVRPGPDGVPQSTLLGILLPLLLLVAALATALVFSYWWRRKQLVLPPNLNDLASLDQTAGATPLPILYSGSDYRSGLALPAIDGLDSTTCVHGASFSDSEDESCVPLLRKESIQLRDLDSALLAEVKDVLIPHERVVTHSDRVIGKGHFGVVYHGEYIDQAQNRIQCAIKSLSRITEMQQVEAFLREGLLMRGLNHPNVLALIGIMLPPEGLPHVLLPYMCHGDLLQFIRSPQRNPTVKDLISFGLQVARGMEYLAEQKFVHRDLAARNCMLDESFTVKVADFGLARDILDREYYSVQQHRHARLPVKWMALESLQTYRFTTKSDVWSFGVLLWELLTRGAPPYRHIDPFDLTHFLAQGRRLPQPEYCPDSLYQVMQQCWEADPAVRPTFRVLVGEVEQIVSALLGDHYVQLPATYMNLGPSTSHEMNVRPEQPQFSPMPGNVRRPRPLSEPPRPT

Binder	binding result
B1	binds
B2	binds
B3	binds
B4	binds
B5	binds
B6	binds
B7	binds
B8	binds
B9	binds
B10	binds
B11	binds
B12	binds
B13	binds
B14	binds
B15	binds
B16	binds
B17	binds
B18	binds
B19	binds
B20	binds

Target: Recombinant extracellular domain of human RON (rhRON) (human, UniProt Q04912)
Sequence (Q04912 25-957): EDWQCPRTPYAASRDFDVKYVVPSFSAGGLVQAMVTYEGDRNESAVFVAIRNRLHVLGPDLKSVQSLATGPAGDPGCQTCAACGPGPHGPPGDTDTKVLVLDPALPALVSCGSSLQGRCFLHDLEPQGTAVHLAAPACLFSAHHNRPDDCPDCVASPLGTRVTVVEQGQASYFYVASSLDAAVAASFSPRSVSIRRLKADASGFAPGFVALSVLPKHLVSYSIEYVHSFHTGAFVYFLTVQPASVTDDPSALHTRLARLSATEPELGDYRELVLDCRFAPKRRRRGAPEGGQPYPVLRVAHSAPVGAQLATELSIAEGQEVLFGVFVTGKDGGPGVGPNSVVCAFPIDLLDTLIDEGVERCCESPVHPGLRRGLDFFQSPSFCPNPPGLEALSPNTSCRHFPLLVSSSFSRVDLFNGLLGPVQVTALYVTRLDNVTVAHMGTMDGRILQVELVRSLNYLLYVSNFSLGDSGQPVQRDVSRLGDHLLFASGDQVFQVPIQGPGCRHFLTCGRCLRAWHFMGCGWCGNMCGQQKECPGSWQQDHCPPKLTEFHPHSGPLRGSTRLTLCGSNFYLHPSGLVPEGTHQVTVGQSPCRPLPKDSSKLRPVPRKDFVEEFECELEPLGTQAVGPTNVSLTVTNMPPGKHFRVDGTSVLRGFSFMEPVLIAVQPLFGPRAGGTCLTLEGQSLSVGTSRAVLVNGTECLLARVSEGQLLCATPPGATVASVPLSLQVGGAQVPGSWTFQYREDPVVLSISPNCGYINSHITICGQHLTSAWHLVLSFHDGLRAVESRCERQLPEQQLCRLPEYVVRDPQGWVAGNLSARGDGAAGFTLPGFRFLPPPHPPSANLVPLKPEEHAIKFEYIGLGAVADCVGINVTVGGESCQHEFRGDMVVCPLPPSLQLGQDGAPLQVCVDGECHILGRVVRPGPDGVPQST

Binder	binding result
B1	binds
B2	binds
B3	binds
B4	binds
B5	binds
B6	binds
B7	binds
B8	binds
B9	binds
B10	binds
B11	binds
B12	binds
B13	binds
B14	binds
B15	binds
B16	binds
B17	binds
B18	binds
B19	binds
B21	binds
B22	binds
